Data as given in publication PMC11488661 (Science immunology, 2024).

B1: g28v2-D38-11_CLK19 (antibody, V domains shown)
VH: QVQLVQSGAEVKKPGASVKVSCKASGYTFTGYYMHWVRQAPGQGLEWMGWINPNSGGTNYAQIFQDRVTMTRDTSISTAYLELSRLRSDDTAVYYCTRVDGVWSFDIWGQGTMVTVSS
VL: NIQMTQSPSSLSASVGDRVTITCQASQDISNYLNWYQQKPGKAPKILIYDASNLETGVPSRFSGSGSGTDFTFTISSLQPEDIATYYCQQYDTFGPGTKVDIK
B2: g28v2-D38-5_CLK19 (antibody, V domains shown)
VH: QVQLVQSGAEVKKPGASVKVSCKASGYTFIDYYIHWVRQAPGQGLEWMGWINPYHGGTNCAQKFQDRVTMTRDTSISTAYLEMSRLRSDDTAVFFCVIALAGHGWRFDYWGQGTQVTVSS
VL: DIQMTQSPSSLSASVGDRVTITCQASQDINNYLNWYQQKPGKAPKLLIYDTSNLETGVPSRFSGSGSGTDFTFTISSLQPEDIATYYCQQYAAFGPGTKVDIK
B3: g28v2-D38-2_CLK19 (antibody, V domains shown)
VH: QVQLVQSGAEVKKPGASVKVSCKASGYTFTDYYLHWVRQAPGQGLEWMGWINPIFGAPNYARKFQGRVTMTRDTSISTAYMELSRLNSDDTAVYYCTHVLATYRWRFDHWGQGTLVTVSS
VL: DIQMTQSPSSLSASVGDRVTFTCQASQDIGNFLNWYQQKPGKAPKLLIYDTSNLGAGVPSRFSGSGSGTDFTFTISSLQPEDIATYYCQQYATFGPGTKVDIK
B4: g28v2-D38-3_CLK19 (antibody, V domains shown)
VH: QVQLVQSGAEVKKPGASVKVSCKASGYTFTGYFMHWVRQAPGQGLEWMGWINPHFGATNYAQKFQGRVTMTRDTSISTAYMELSRLRSDDWAVYYCTPVLATFRWRFDYWGQGTLVTVSS
VL: DIQMTQSPSSLSASVGDRVTISCQASQDINNYLNWYQQKPGKAPKLLIYDTSNLETGVPSRFSGSGSGTDFTFTISSLQPEDIATYYCQQYDTFGPGTKVDIK
B5: g28v2-D46-11_CLK19 (antibody, V domains shown)
VH: QVQLVQSGAEVKKPGASVRVSCKASGYTFTDYYMHWVRQAPGQGLEWMGWINPHSGGVNYAHKFQGRVTMTRDTSISTAYMELSRLRSDDTAVYYCTTALAGHGWRFDYWGQGTLVTVSS
VL: DIQMTQSPSSLSASVGDRVTITCQASQDTSNYLNWYQLKPGKAPKLLIYDASNLETGVPSRFSGSGSGTDFTFTISGLQPEDIATYYCQQYETFGPGTKVDIK
B6: g28v2-D46-10_CLK19 (antibody, V domains shown)
VH: QVQLVQSGAEVKRPGASVRVSCKASGYTFTGYYMHWVRQAPGQGLEWMGWINPNRGGVNYAHKFQGRVTMTRDTSISTAYMDLSRLRSDDTAVFYCTTALAGHGWRFDYWGQGTLVTVSS
VL: NIQMTQSPSSLSASVGDRVTITCQASQDTSNYLNWYQQKPGKAPKLLIYDASNLETGVPSRFSGSGSGTDFTFTISGLQPEDIATYYCQQYETFGPGTKVDIK
B7: g28v2-D46-12_CLK19 (antibody, V domains shown)
VH: QVQLVQSGAEVKKPGASVKVSCKASGYTFTGYFMHWVRQAPGQGLEWMGWINPNTGGVNYSQKFQGRVTMTRDTSITTAYMELSSLRSDDTAVYFCVTALAGHGWRFDYWGQGTLVTVSS
VL: DIQMTQSPSSLSASVGDRVTITCQASQDTSNYLNWYQQKPGKAPKLLIYDASNLETGVPSRFSGSGSGTDFTFTISGLQPEDIATYYCQQYETFGPGTKVDIK
B8: g28v2-D46-13_CLK19 (antibody, V domains shown)
VH: QVQLVQSGAEVKKPGASVKVSCKASGYTFTGNYMHWVRQAPGQGLEWMGWINPNSGGTNYAQKFQGRVTMTRDTSISTAHMELRSLRSDDTAVYYCARVEGSWFGKKWTFDIWGQGTMVTVSS
VL: AIQMTQSPSSLSASVGDRVTITCQASQDITNYLNWYQQKPGKAPKLLIYDASNLEAGVPSRFSGSGSGTDFTFTISGLQPEDIATYSCQQYETFGPGTKVDIK
B9: g28v2-D38-8_CLK19 (antibody, V domains shown)
VH: QVQLVQSGAEVKKPGASVKVSCKASGYSFSGYYMHWVRQAPGQGLEWMGWINPNHGGTNYAQKFQDRVTMTRDTSISTAYMELSRLRSDDTAVYFCARVDESWFGKKWTFDIWGQGTMVTVSS
VL: DIQMTQSPSSLSASVGDRVTITCQASQDIGNYLNWYQQKPGKAPKLLIYDTSNLETGVPSRFSGSGSGTDFSFTIASLQPEDIATYYCQQYDIFGPGTKVDIK
B10: g28v2-D46-1_CLK19 (antibody, V domains shown)
VH: QVQLVQSGAEVKKPGAAVKVSCKASGYTFTGYYIHWVRQAPGQGLEWMGWVNPKTGATNYAQKFQGRVTMTRDTSISTTYMELRRLRSDETAVYFCATVMADFRWPFDYWGQGTLVTVSS
VL: DIQMTQSPSSLSASVGDRVTITCQASQDINNYLNWYQQKPGKAPKLLIYDTSNLGIGVPSRFSGSGSGTDFTFTISSLQPEDIGTYYCQQYDTFGPGTKVDIK
B11: g28v2-D38-6_CLK19 (antibody, V domains shown)
VH: QVQLVQSGAEVREPGASVKVSCKASGYTFTGYYMHWVRQAPGQGLEWMGWINPNRGGTNLARKLQDRVTMTRDTSLSTAYMELRRLRTDDTAVYYCARVGEKWTFDIWGQGTMVTVSS
VL: DLQMTQSPSSLSASVGDRVTITCQASQDINNYLNWYQQKPGRAPKLLIYDTSNLETGVPSRFSGSGSGTDFTFTISSLQPEDIATYYCQQYAAFGPGTKVDIK
B12: g28v2-D38-4_CLK09 (antibody, V domains shown)
VH: QVQLVQSGAEVKKPGASVKVSCKASGYTFTDYFLHWVRQAPGQGLEWMGWINPTGGGVNYAQQFQGRVTLTRDTSISTAYMELTRLRSDDTAVYYCTPVLATFRWRFDYWGQGTLVTVSS
VL: DIQMTQSPSSLSASVGDRVTITCQASQDISNYLNWYQQKPGKAPKLLIYDVSNLGTGVPSRFSGSGSGTDFTFTISSLQPEDIATYYCQQYEFFGGGTKVEIK
B13: g28v2-D46-2_CLK19 (antibody, V domains shown)
VH: QVQLLQSGDEVKKPGASVRVSCKASGYTFTAYFLHWVRQAPGQGLEWMGWINPHSGGTNYAQRFQDRVTMTRDTSISTAYMELSRLRSDDTAVYYCTPVLADYRWRFAYWGQGTLVTVSS
VL: DIQMTQSPSSLSASVGDRVTITCQASQDINNYLNWYQQKPGKAPKLLIYDTTNLEIGVPSRFSGSGSGTDFTFTISSLQPEDFATYYCQQYAAFGPGTKVDIK
B14: g28v2-D38-7_CLK19 (antibody, V domains shown)
VH: QVQLVQSGAEVKKPGASVKVSCKASGYTFTGYYMHWVRQAPGQGPEWMGWLNPNNGGTNFARKYQDRVTMTRDTSLSSAYMELSRLRSDDTAVYYCARVGEKWTFDFWGQGTMVTVSS
VL: DIQMTQSPSSLSASVGDRVTITCQASQDINNYLNWYQQKPGKAPKLLIYDTSNLEAGVPSRFSGSGSGTDFTFTISSLQPEDIATYFCQQYAAFGPGTKVDIK
B15: g28v2-D38-9_CLK19 (antibody, V domains shown)
VH: QVQLVQSGAEVKKPGASVKVSCKASGYTFTVYYMHWVRQAPGQGLEWMGWINPNSGGTNYPQKFQGRVTMTRDTSISTAYMELSRLRSDDTAVYYCALWFGEKKTFDIWGQGTMVTVSS
VL: DIQMTQSPSSLSASVGDRVTITCQASQDIGNYLNWYQQKPGKAPKLLIYDTSNLETGVPSRFSGGGSGPDFTFTISTLQPEDIGTYYCQQYDTFGPGTKVDIK
B16: g28v2-D46-14_CLK19 (antibody, V domains shown)
VH: RVQLVQSGAEVKKPGASVKVSCKASGYTFTGYYIHWVRQAPGQGLEWMGWINPNRGGTNYPQKFQGRVTMTRDTSISTASMELSRLRSDDTAVYYCALWFGEKKTFDIWGQGTMVTVSS
VL: DIQLTQSPSSLSASVGGRVTITCQASQDIHNYLNWYQQKPGKAPKILIHDVSNLETGVPSRFSGSRSGTDFTFTISSLLPEDIGTYYCQQYEFFGPGTKVDIK

These binders were tested against eOD-GT8 (monomeric ligand) (Human immunodeficiency virus 1, …).

Point of comparison: B1, Kd 0.0422 nM. Against it:
- B2 — 100-fold higher, 4.43 nM
- B3 — 88000-fold higher, 3710 nM
- B4 — 2500-fold higher, 105 nM
- B5 — within 1.5-fold, 0.0455 nM
- B6 — 32-fold higher, 1.35 nM
- B7 — 4.3-fold higher, 0.183 nM
- B8 — 4.6-fold higher, 0.193 nM
- B9 — 1200-fold higher, 50.8 nM
- B10 — 260-fold higher, 10.8 nM
- B11 — 130-fold higher, 5.38 nM
- B12 — 4.2-fold higher, 0.177 nM
- B13 — 8.2-fold higher, 0.344 nM
- B14 — 2.1-fold higher, 0.0876 nM
- B15 — 3.5-fold higher, 0.149 nM
- B16 — 280-fold higher, 12 nM
